Measurements as given in patent US20220040234A1 (JUVENTAS CELL THERAPY, published 2022).

Molecular target: T1, CD19 on the CD19-positive human leukemia cell line Nalm-6 (human, UniProt P15391 20-556)
T1 sequence (looked up): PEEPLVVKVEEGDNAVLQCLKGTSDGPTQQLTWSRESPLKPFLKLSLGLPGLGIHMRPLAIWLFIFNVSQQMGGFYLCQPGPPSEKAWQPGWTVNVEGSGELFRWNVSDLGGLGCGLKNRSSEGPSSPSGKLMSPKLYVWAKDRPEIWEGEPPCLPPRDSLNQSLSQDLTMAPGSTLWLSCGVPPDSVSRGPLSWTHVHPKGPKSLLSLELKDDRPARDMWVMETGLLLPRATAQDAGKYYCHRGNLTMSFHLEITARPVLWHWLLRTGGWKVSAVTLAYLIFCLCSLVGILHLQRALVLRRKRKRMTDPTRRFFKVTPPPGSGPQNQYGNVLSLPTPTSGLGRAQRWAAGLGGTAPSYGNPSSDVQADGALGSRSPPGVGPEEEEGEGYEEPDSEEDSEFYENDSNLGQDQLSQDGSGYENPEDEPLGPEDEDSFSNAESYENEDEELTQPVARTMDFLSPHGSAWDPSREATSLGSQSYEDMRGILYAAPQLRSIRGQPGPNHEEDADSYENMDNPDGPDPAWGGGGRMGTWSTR
Assay: cell-based or functional assay

IL-6 secreted by CNCT19 cells after 24 h co-culture with Nalm-6 target cells, effector/target ratio 2:1: 32.2 pg/mL
INF-γ secreted by CNCT19 cells after 24 h co-culture with Nalm-6 target cells, effector/target ratio 2:1: 6190 pg/mL
residual rate of target cells (Nalm-6) after 24 h co-culture with CNCT19 cells, effector/target ratio 1:2, flow cytometry: 2.8%
residual rate of target cells (Nalm-6) after 24 h co-culture with CNCT19 cells, effector/target ratio 2:1, flow cytometry: 1.1%
B1: CD19-targeted chimeric antigen receptor (CAR) of SEQ ID NO. 1, expressed on the surface of CNCT19 cells (other)
chain: GSDIVLTQSPKFMSTSVGDRVSVTCKASQNVGTNVAWYQQKPGQSPKPLIYSATYRNSGVPDRFTGSGSGTDFTLTITNVQSKDLADYFCQQYNRYPYTSGGGTKLEIKRGGGGSGGGGSGGGGSQVQLQQSGAELVRPGSSVKISCKASGYAFSSYWMNWVKQRPGQGLEWIGQIYPGDGDTNYNGKFKGQATLTADKSSSTAYMQLSGLTSEDSAVYFCARKTISSVVDFYFDYWGQGTTLTVSSEFTTTPAPRPPTPAPTIASQPLSLRPEACRPAAGGAVHTRGLDFACDIYIWAPLAGTCGVLLLSLVITLYCKRGRKKLLYIFKQPFMRPVQTTQEEDGCSCRFPEEEEGGCELRVKFSRSADAPAYQQGQNQLYNELNLGRREEYDVLDKRRGRDPEMGGKPRRKNPQEGLYNELQKDKMAEAYSEIGMKGERRRGKGHDGLYQGLSTATKDTYDALHMQALPPR
